Reference: patent US20040052799A1, “Nucleic acid and amino acid sequences relating to Helicobacter pylori for diagnostics and therapeutics” (Astra Aktiebolag, priority 1996, published 2004)
Marks after values point to notes of the source that are not given here.

Experiments:
H. pylori = assay: Protective oral immunization and challenge with live H. pylori, quantitative urease assay and bacterial colony counts of gastric tissue; type: in vivo, C57BL/6 mice
Experimental: A murine model of H. pylori infection was produced by infection of C57BL/6 mice with H. pylori Sydney strain SS1 and was used to assess the efficacy of recombinant H. pylori vac36. […] Dose-response studies have shown 100% infection rates of inbred C57BL/6 and Balb/C mice at 8 weeks post-challenge with a single inoculation of […] organisms.
The presence of H. pyloriorganisms in gastric tissue was determined by culture of gastric tissue and by a quantitative urease assay. In the latter method, a longitudinal segment of antrum, representing approximately ¼ of the total antral region was placed in 1 ml of urea broth. After 4 hr, the extent of color change resulting from urea hydrolysis and increased pH was quantiated by spectrophotometric measurement of A550 (Fox et al., Immunol. 88:400-406, 1996). The assay sensitivity is ˜10^3 H. pylori organisms. A positive (H. pylori-infected) gastric tissue was defined as that sample showing 2 standard deviations above the mean A550 value derived from a group of unchallenged uninfected age-matched control mice.
(§1) Protective activity of purified recombinant H. pylori vac36 (SEQ ID NO: 5146) antigen The ability of purified recombinant vac36 (SEQ ID NO: 5146) antigen derived from H. pylori to interfere with the establishment of an H. pylori infection was examined in mice. […]. The mice were challenged 2 weeks later on 3 consecutive days by oral administration of 10^8 H. pylori organisms. The experiment was terminated 2 weeks post-challenge, and the H. pylori infection level assessed by bacterial colony counts and by quantitative urease assays.

[1] = tested on: CD4+ or CD8+ T cells and IgA containing (IgACC) plasma cells in gastric tissue; assay: Local gastric immune response to immunization, immunostaining of gastric cryosections; type: in vivo, C57BL/6 mice
Excerpt: Longitudinal sections of gastric tissues from the esophageal to the duodenal junction were embedded in OCT embedding compound, frozen in liquid nitrogen, and cryosections immunostained with monoclonal antibodies recognizing CD4^+ or CD8^+T cells or with antisera against mouse IgA for identification of IgA containing (IgACC) plasma cells (Pappo et al., Infect. Immun. 63:1246-1252, 1995). The degree of local gastric immune response was expressed quantitatively as the number of CD4^+, CD8^+ or IgACC cells per mm^2 of gastric region examined.
as §1

[2] = mean number of cells/mm^2 of gastric region ± SEM, immunized mice upon challenge with H. pylori

B1: vac36: recombinant H. pylori outer membrane protein with terminal phenylalanine residue and C-terminal tyrosine cluster, aa SEQ ID NO: 5146, nt SEQ ID NO: 384 (protein, listed as Helicobacter pylori)
chain: MKQNLKPFKMIKENLMTQSQKVRFLAPLSLALSLSFNPVGAEEDGGFMTFGYELGQVVQQVKNPGKIKAEELAGLLNSTTTNNTNINIAGTGGNVAGTLGNLFMNQLGNLIDLYPTLKTNNLHQCGSTNSGNGATAAAATNNSPCFQGNLALYNEMVDSIKTLSQNISKNIFQGDNNTTSANLSNQLSELNTASVYLTYMNSFLNANNQAGGIFQNNTNQAYENGVTAQQIAYVLKQASITMGPSGDSGAAGAFLDAALAQHVFNSANAGNDLSAKEFTSLVQNIVNNSQNALTLANNANISNSTGYQVSYGGNIDQARSTQLLNNTTNTLAKVTALNNELKANPWLGNFAAGNSSQVNAFNGFITKIGYKQFFGENKNVGLRYYGFFSYNGAGVGNGPTYNQVNLLTYGVGTDVLYNVFSRSFGSRSLNAGFFGGIQLAGDTYISTLRNSPQLASRPTATKFQFLFDVGLRMNFGILKKDLKSHNQHSIEIGVQIPTIYNTYYKAGGAEVKYFRPYSVYWVYGYAF
modifications: misc_feature (B) LOCATION 1...527; hypothetical: YES
With B1 the “level of colonization by H. pylori, as assessed by gastric urease activity and bacterial count assays” value (H. pylori; C57BL/6 mice immunized orally, challenged with live H. pylori) was “significantly lower level of colonization”, the H. pylori burden (H. pylori; bacterial counts in gastric tissue, mean ± SEM, oral immunization 4 times weekly with 10 μg CT, challenge with 10^8 H. pylori, 2 weeks post-challenge) was 55,800 ± 12,599 colony forming units and the “Urease Activity” value (H. pylori; mean A550 ± SEM of duplicate antral samples, n = 10 mice/group, oral immunization 4 times weekly with 10 μg CT, challenge with 10^8 H. pylori, 2 weeks post-challenge) was 0.199 ± 0.080 A550. The “numbers of CD4+ T cells and of IgACC recruited in the gastric tissues” value ([1]; compared with unimmunized H. pylori-infected mice) was “Greater numbers”, the “CD4+ antrum” value [1, 2] was 31 ± 8 cells/mm^2 and the “CD4+ cardia” value [1, 2] was 33 ± 9^a cells/mm^2. The “CD4+ corpus” value [1, 2] was 54 ± 8 cells/mm^2, the “CD8+ antrum” value [1, 2] was 1 ± 1 cells/mm^2 and the “CD8+ cardia” value [1, 2] was 3 ± 2 cells/mm^2. The “CD8+ corpus” value [1, 2] was 0 cells/mm^2, the IgACC antrum [1, 2] was 67 ± 13 cells/mm^2 and the IgACC cardia [1, 2] was 24 ± 12 cells/mm^2. For the same molecule, the IgACC corpus [1, 2] was 79 ± 16 cells/mm^2.
